For the data set, the system named is Escherichia coli TOP10. Description: shrunken log2 fold change of peptide-encoding DNA abundance (4.5 h post-induction vs induction); higher = less antimicrobial activity (less host growth inhibition). The note with it: time post-induction: 4.5 h; library: site-saturation at positions 5, 18, 19, 20.
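Note: peptides expressed intracellularly from a pBAD plasmid library in pooled LB shake-flask culture, induced with 0.3% L-arabinose, DNA abundance read by NGS, three biological replicates, DESeq2 with apeglm shrinkage.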

On to RRIRDRPPRLPRPRPRPITTPRP, for which the “shrunken log2 fold change” value is 0.0735.

As to RRIRMRPPRLPRPRPRPYVIPRP, the “shrunken log2 fold change” value is -0.125.

Take RRIRMRPPRLPRPRPRPQTAPRP: the “shrunken log2 fold change” value worked out at 0.524.

Turning to RRIRGRPPRLPRPRPRPYRCPRP, the “shrunken log2 fold change” value is -0.00655.

Turning to RRIRWRPPRLPRPRPRPWMIPRP, the “shrunken log2 fold change” value was -0.0414.

Regarding RRIRFRPPRLPRPRPRPMSSPRP, the “shrunken log2 fold change” value was -0.0482.

Take RRIRKRPPRLPRPRPRPFRYPRP: the “shrunken log2 fold change” value is -0.0832.

On to RRIRDRPPRLPRPRPRPWWTPRP, for which the “shrunken log2 fold change” value was -0.327.

As to RRIRMRPPRLPRPRPRPAPDPRP, the “shrunken log2 fold change” value turned out to be 1.15.

In the case of RRIRQRPPRLPRPRPRPCKFPRP, the “shrunken log2 fold change” value was -0.194.

Regarding RRIRCRPPRLPRPRPRPLAPPRP, the “shrunken log2 fold change” value worked out at 0.268.

Turning to RRIRYRPPRLPRPRPRPHYNPRP, the “shrunken log2 fold change” value is -1.18.

Consider RRIRNRPPRLPRPRPRPQNNPRP, for which the “shrunken log2 fold change” value is -0.734.

Consider RRIRNRPPRLPRPRPRPPRMPRP, for which the “shrunken log2 fold change” value turned out to be 0.24.

RRIRGRPPRLPRPRPRPIPYPRP: the “shrunken log2 fold change” value was -0.1.

As to RRIRQRPPRLPRPRPRPTNHPRP, the “shrunken log2 fold change” value was -0.552.

Regarding RRIRSRPPRLPRPRPRPMKSPRP, the “shrunken log2 fold change” value came out at 0.328.

Take RRIRQRPPRLPRPRPRPRHTPRP: the “shrunken log2 fold change” value was -0.147.

Regarding RRIRPRPPRLPRPRPRPYFCPRP, the “shrunken log2 fold change” value is -0.293.

Turning to RRIRGRPPRLPRPRPRPEAQPRP, the “shrunken log2 fold change” value amounted to 1.61.

Regarding RRIRRRPPRLPRPRPRPIVHPRP, the “shrunken log2 fold change” value is -0.0757.

As to RRIRIRPPRLPRPRPRPSPEPRP, the “shrunken log2 fold change” value is -0.241.

RRIRTRPPRLPRPRPRPLKWPRP: the “shrunken log2 fold change” value was -0.205.

Consider RRIRDRPPRLPRPRPRPEHCPRP, for which the “shrunken log2 fold change” value was -0.0205.

For RRIRERPPRLPRPRPRPLATPRP, the “shrunken log2 fold change” value stood at 0.133.

As for RRIRYRPPRLPRPRPRPHVMPRP, the “shrunken log2 fold change” value is -0.644.

As for RRIRERPPRLPRPRPRPVAVPRP, the “shrunken log2 fold change” value is -0.0937.

For RRIRIRPPRLPRPRPRPFKDPRP, the “shrunken log2 fold change” value is -0.0121.

As for RRIRMRPPRLPRPRPRPRFCPRP, the “shrunken log2 fold change” value came out at 1.63.

Take RRIRSRPPRLPRPRPRPYGPPRP: the “shrunken log2 fold change” value is -0.401.

RRIRLRPPRLPRPRPRPLANPRP: the “shrunken log2 fold change” value was -0.00613.

In the case of RRIRVRPPRLPRPRPRPHYGPRP, the “shrunken log2 fold change” value is -0.0301.

RRIRERPPRLPRPRPRPCTDPRP: the “shrunken log2 fold change” value was -0.169.

Turning to RRIRIRPPRLPRPRPRPKQPPRP, the “shrunken log2 fold change” value was 0.102.

Regarding RRIRVRPPRLPRPRPRPTAMPRP, the “shrunken log2 fold change” value is 0.0686.

As for RRIRTRPPRLPRPRPRPGPQPRP, the “shrunken log2 fold change” value worked out at 0.0198.

For RRIRWRPPRLPRPRPRPSFAPRP, the “shrunken log2 fold change” value came to 0.28.

Regarding RRIRHRPPRLPRPRPRPWSFPRP, the “shrunken log2 fold change” value came to 0.0231.

In the case of RRIRYRPPRLPRPRPRPQQFPRP, the “shrunken log2 fold change” value is -0.397.

Consider RRIRYRPPRLPRPRPRPVCEPRP, for which the “shrunken log2 fold change” value is 0.0427.

As to RRIRWRPPRLPRPRPRPKKDPRP, the “shrunken log2 fold change” value was determined as 0.223.

Take RRIRGRPPRLPRPRPRPHAPPRP: the “shrunken log2 fold change” value came out at 1.23.

Turning to RRIRERPPRLPRPRPRPFWYPRP, the “shrunken log2 fold change” value was -0.000951.

Take RRIRKRPPRLPRPRPRPGSIPRP: the “shrunken log2 fold change” value was determined as 0.00442.

Consider RRIRFRPPRLPRPRPRPFVNPRP, for which the “shrunken log2 fold change” value was -1.51.

On to RRIRQRPPRLPRPRPRPEGRPRP, for which the “shrunken log2 fold change” value was 0.00666.

Regarding RRIRDRPPRLPRPRPRPHIDPRP, the “shrunken log2 fold change” value is -0.0782.

With RRIRARPPRLPRPRPRPNVIPRP, the “shrunken log2 fold change” value is -0.433.

Regarding RRIRSRPPRLPRPRPRPCYVPRP, the “shrunken log2 fold change” value is -0.338.

On to RRIRQRPPRLPRPRPRPKCMPRP, for which the “shrunken log2 fold change” value is -0.551.

For RRIRCRPPRLPRPRPRPCQMPRP, the “shrunken log2 fold change” value is -0.609.

On to RRIRERPPRLPRPRPRPCNVPRP, for which the “shrunken log2 fold change” value is -0.0745.

For RRIRKRPPRLPRPRPRPHIKPRP, the “shrunken log2 fold change” value is -0.0411.

As for RRIRMRPPRLPRPRPRPHRAPRP, the “shrunken log2 fold change” value turned out to be 0.677.

Turning to RRIRLRPPRLPRPRPRPCRKPRP, the “shrunken log2 fold change” value is -0.19.

In the case of RRIRTRPPRLPRPRPRPSWMPRP, the “shrunken log2 fold change” value is -0.466.

Consider RRIRPRPPRLPRPRPRPAWGPRP, for which the “shrunken log2 fold change” value stood at 0.503.

For RRIRARPPRLPRPRPRPKTAPRP, the “shrunken log2 fold change” value turned out to be 0.0481.

Regarding RRIRQRPPRLPRPRPRPYYHPRP, the “shrunken log2 fold change” value is -0.413.

In the case of RRIRKRPPRLPRPRPRPYTTPRP, the “shrunken log2 fold change” value was -0.0326.

As for RRIRDRPPRLPRPRPRPFVKPRP, the “shrunken log2 fold change” value is -0.1.

As to RRIRERPPRLPRPRPRPNSTPRP, the “shrunken log2 fold change” value is -0.495.

Consider RRIRTRPPRLPRPRPRPFYNPRP, for which the “shrunken log2 fold change” value was -0.755.

In the case of RRIRNRPPRLPRPRPRPATTPRP, the “shrunken log2 fold change” value came out at 0.272.

RRIRDRPPRLPRPRPRPIMAPRP: the “shrunken log2 fold change” value is -0.00298.

With RRIRARPPRLPRPRPRPKHMPRP, the “shrunken log2 fold change” value was -0.158.

Regarding RRIRDRPPRLPRPRPRPSPNPRP, the “shrunken log2 fold change” value was 0.122.

As for RRIRIRPPRLPRPRPRPCEEPRP, the “shrunken log2 fold change” value was found to be 0.0173.

For the sequence RRIRFRPPRLPRPRPRPVKHPRP, the “shrunken log2 fold change” value is -0.222.

Turning to RRIRQRPPRLPRPRPRPRVTPRP, the “shrunken log2 fold change” value came to 0.238.

Regarding RRIRPRPPRLPRPRPRPVNKPRP, the “shrunken log2 fold change” value is -0.521.

As for RRIRRRPPRLPRPRPRPCVAPRP, the “shrunken log2 fold change” value was found to be 0.261.

As for RRIRTRPPRLPRPRPRPAQRPRP, the “shrunken log2 fold change” value was determined as 0.356.

As for RRIRARPPRLPRPRPRPPNSPRP, the “shrunken log2 fold change” value came out at 0.136.

For RRIRYRPPRLPRPRPRPLRCPRP, the “shrunken log2 fold change” value was 0.0617.

Regarding RRIRNRPPRLPRPRPRPCPEPRP, the “shrunken log2 fold change” value was determined as 0.113.

With RRIRKRPPRLPRPRPRPVDQPRP, the “shrunken log2 fold change” value stood at 0.766.

For the sequence RRIRLRPPRLPRPRPRPHYFPRP, the “shrunken log2 fold change” value was -0.404.

Take RRIRFRPPRLPRPRPRPCPYPRP: the “shrunken log2 fold change” value is -0.261.

For RRIRDRPPRLPRPRPRPNNIPRP, the “shrunken log2 fold change” value was -0.558.

On to RRIRYRPPRLPRPRPRPQHTPRP, for which the “shrunken log2 fold change” value was -0.671.

With RRIRIRPPRLPRPRPRPSHKPRP, the “shrunken log2 fold change” value is -0.671.

As to RRIRVRPPRLPRPRPRPSWKPRP, the “shrunken log2 fold change” value was -0.0781.

Regarding RRIRERPPRLPRPRPRPEQLPRP, the “shrunken log2 fold change” value is 0.00434.

For RRIRFRPPRLPRPRPRPVNLPRP, the “shrunken log2 fold change” value was 0.025.

For the sequence RRIRDRPPRLPRPRPRPCTGPRP, the “shrunken log2 fold change” value is -0.0116.

As for RRIRMRPPRLPRPRPRPSFFPRP, the “shrunken log2 fold change” value was found to be 0.0666.

In the case of RRIRLRPPRLPRPRPRPMYWPRP, the “shrunken log2 fold change” value is -0.115.

RRIRSRPPRLPRPRPRPIQWPRP: the “shrunken log2 fold change” value was 0.268.

As for RRIRRRPPRLPRPRPRPCVQPRP, the “shrunken log2 fold change” value came out at 0.171.

Turning to RRIRNRPPRLPRPRPRPIHMPRP, the “shrunken log2 fold change” value turned out to be 0.0468.

For RRIRARPPRLPRPRPRPHFMPRP, the “shrunken log2 fold change” value came out at 0.787.

In the case of RRIRDRPPRLPRPRPRPTRGPRP, the “shrunken log2 fold change” value came out at 0.67.

Turning to RRIRLRPPRLPRPRPRPWFLPRP, the “shrunken log2 fold change” value was -0.449.

As to RRIRPRPPRLPRPRPRPHAVPRP, the “shrunken log2 fold change” value came out at 0.0549.

As to RRIRNRPPRLPRPRPRPTNCPRP, the “shrunken log2 fold change” value turned out to be 0.143.

Regarding RRIRERPPRLPRPRPRPFSYPRP, the “shrunken log2 fold change” value is -0.0589.

As for RRIRNRPPRLPRPRPRPFDAPRP, the “shrunken log2 fold change” value is -0.106.

Consider RRIRNRPPRLPRPRPRPANYPRP, for which the “shrunken log2 fold change” value was -0.0161.

With RRIRDRPPRLPRPRPRPTVFPRP, the “shrunken log2 fold change” value came to 0.708.

For RRIRGRPPRLPRPRPRPDKAPRP, the “shrunken log2 fold change” value is -0.00124.

Regarding RRIRIRPPRLPRPRPRPKDGPRP, the “shrunken log2 fold change” value was -0.105.

For the sequence RRIRTRPPRLPRPRPRPWDYPRP, the “shrunken log2 fold change” value was -0.139.

In the case of RRIRYRPPRLPRPRPRPHRYPRP, the “shrunken log2 fold change” value is -0.41.

Take RRIRFRPPRLPRPRPRPTATPRP: the “shrunken log2 fold change” value was 0.355.

As to RRIRVRPPRLPRPRPRPPWEPRP, the “shrunken log2 fold change” value came to 0.252.

As to RRIRHRPPRLPRPRPRPSRYPRP, the “shrunken log2 fold change” value was -1.

Take RRIRVRPPRLPRPRPRPYHEPRP: the “shrunken log2 fold change” value was -0.159.

For the sequence RRIRCRPPRLPRPRPRPTPCPRP, the “shrunken log2 fold change” value worked out at 0.281.

On to RRIRLRPPRLPRPRPRPAVMPRP, for which the “shrunken log2 fold change” value came out at 0.113.

On to RRIRYRPPRLPRPRPRPRIWPRP, for which the “shrunken log2 fold change” value is -0.0174.

Take RRIRSRPPRLPRPRPRPWADPRP: the “shrunken log2 fold change” value is -0.307.

On to RRIRDRPPRLPRPRPRPNWDPRP, for which the “shrunken log2 fold change” value is 0.0503.

RRIRGRPPRLPRPRPRPKFYPRP: the “shrunken log2 fold change” value was -0.278.

Consider RRIRKRPPRLPRPRPRPKSIPRP, for which the “shrunken log2 fold change” value is -0.0265.

Consider RRIRWRPPRLPRPRPRPAMFPRP, for which the “shrunken log2 fold change” value came out at 0.324.

RRIRFRPPRLPRPRPRPKKDPRP: the “shrunken log2 fold change” value turned out to be 0.184.

For the sequence RRIRFRPPRLPRPRPRPPKGPRP, the “shrunken log2 fold change” value is -0.0971.

For the sequence RRIRTRPPRLPRPRPRPHCMPRP, the “shrunken log2 fold change” value was -0.153.

Consider RRIRIRPPRLPRPRPRPSGCPRP, for which the “shrunken log2 fold change” value was -0.137.

Take RRIRYRPPRLPRPRPRPARIPRP: the “shrunken log2 fold change” value was 0.0141.

As for RRIRLRPPRLPRPRPRPQKTPRP, the “shrunken log2 fold change” value is -0.03.

Take RRIRKRPPRLPRPRPRPRFCPRP: the “shrunken log2 fold change” value turned out to be 0.554.

On to RRIRERPPRLPRPRPRPNPVPRP, for which the “shrunken log2 fold change” value was -0.424.

For RRIRLRPPRLPRPRPRPGFIPRP, the “shrunken log2 fold change” value turned out to be 0.452.

The values above are taken from the supplement of paper PMC9112550, “Optimization of the antimicrobial peptide Bac7 by deep mutational scanning” (BMC Biology, 2022).
